What was measured:
[1] = molecular target: T1, biotin-Aβ1-20 (UniProt P05067 672-691, not fully specified; biotin (site not stated)); test: BIACORE
T1 construct: domain: Aβ1-20; BIACORE antigen standing for monomeric Aβ peptide; also called biotinylated-Aβ1-20
T1 peptide (looked up): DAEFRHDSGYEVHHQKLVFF

[2] = molecular target: biotinylated ADDL (bADDL) (UniProt P05067 672-713, N-terminal biotin); test: cell-based or functional assay
[3] = molecular target: T2, Aβ-derived diffusible ligands (ADDLs) (UniProt P05067 672-713); test: ELISA; reference is binding of the same antibody to Aβ40 monomer
T2 construct: domain: Aβ1-42; Soluble oligomers of Aβ1-42
Protocol: Affinity maturation was carried out to improve affinity and improve preferential binding to ADDL. To evaluate ADDL binding affinity of the humanized antibodies, BIACORE™ and titration ELISAs were conducted as disclosed herein. Briefly, Streptavidin-coated, 96-well microtiter plates (Sigma, St. Louis, Mo.) were coated with 10% biotinylated ADDL antigen (1 μM). A series of 2-fold dilutions of purified antibody, starting at 500 ng/mL was added to the ADDL captured plates and the plates were incubated for 2 hours at 25° C. […] A rabbit anti-goat IgG (H+L) HRP-conjugated (Bethyl Laboratories, Inc., Montgomery, Tex.) detection antibody was then added at a 1/2000 dilution in blocking solution and incubated for 1 hour at room temperature. After washing with PBS, HRP substrate, 3,3′,5′5-tetramethylbenzidine (ready-to-use TMB; Sigma, St. Louis, Mo.) was added and the reaction was stopped after 10 minutes with 0.5 N H₂SO₄. Absorbance at wavelength of 450 nm was read in a plate reader (model VICTOR V; Perkin Elmer, Boston, Mass.) and data were processed using EXCEL® work sheet.

B1: Hu20C2A3 (veneered version of clone A3, IgG2m4 isotype) (antibody, V domains shown)
VH: QVTLKESGPGLLKPTQTLTLTCTLSGFSLSTSGMGVGWFRQPPGKGLEWLAHIWWDDDKSYNPSLKSRLTISKDTSKNQVVLTITNVDPVDTATYYCARRQLGTRGTDAMDYWGQGTTVTVSS
VL: DVVMTQTPLSLPVTPGQPASISCRSSQSILHSNGNTYLEWYLQKPGQSPQLLIYKVSNRFSGVPDRFSGSGSGTDFTLKISRVEAEDVGVYYCLQTTRVPLTFGQGTKLEIKR
notes: to be checked against the listing; also called Hu20C2A3 produced in CHO; Hu20C2A3 produced in Pichia
[1]
  binding result: binds
[2]
  inhibition of bADDL binding to primary hippocampal neurons (alkaline phosphatase-streptavidin luminescence): 0.16 antibody to peptide ratio
[3]
  fold preference for ADDL binding versus Aβ40 monomer binding: 6 fold

Source: patent US20070081998A1 (published 2007)
